Measured values as given in paper PMC7375649, “Varicella zoster virus encodes a viral decoy RHIM to inhibit cell death” (PLoS Pathogens, 2020).

B1: YPet-ZBP1_(170-355) (domain or fragment)
chain: SGRRAKSASIIYQHNPINMICQNGPNSWISIANSEAIQIGHGNIITRQTVSREDGSAGPRHLPSMAPGDSSTWGTLVDPWGPQDIHMEQSILRRVQLGHSNEMRLHGVPSEGPAHIPPGSPPVSATAAGPEASFEARIPSPGTHPEGEAAQRIHMKSCFLEDATIGNSNKMSISPGVAGPGGVAGS
notes: human ZBP1, RHIM-containing region, residues 170-355; also called YPet-ZBP1 RHIM; source: E. coli BL21(DE3) pLysS, purified from inclusion bodies under denaturing conditions (Ni-NTA)
B2: YPet-RIPK3_(387-518) (domain or fragment)
chain: TSSDSMAQPPQTPETSTFRNQMPSPTSTGTPSPGPRGNQGAERQGMNWSCRTPEPNPVTGRPLVNIYNCSGVQVGDNNYLTMQQTTALPTWGLAPSGKGRGLQHPPPVGSQEGPKDPEAWSRPQGWYNHSGK
notes: human RIPK3, RHIM-containing region, residues 387-518; source: E. coli BL21(DE3) pLysS, purified from inclusion bodies under denaturing conditions (Ni-NTA)

Target: the molecule itself
Test: single molecule fluorescence confocal spectroscopy (two-colour coincidence); proteins alone or one mCherry-tagged and one YPet-tagged protein mixed, diluted out of 8 M urea to 0.35-0.7 uM in 25 mM NaH2PO4, 150 mM NaCl, 0.5 mM DTT, pH 7.4; room temperature; 488 and 561 nm lasers

| Protein | binding result |
| --- | --- |
| B1 | binds |
| B2 | binds |
